We go through 69 sequences from the domain aggregation screens of Martell et al. (2025).

A value given as a limit tells only on which side of the number the result lay.

The data set can be described thus: soluble fraction after stress (log2 fold change); higher = more stays soluble; pooled small domains, quantitative proteomics. The conditions noted are these: stress: pH 4. In a few lines:
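Small protein domains from pooled custom libraries were exposed to pH 4, then quantified with high-throughput quantitative proteomics. The fold change in how much of each domain remains soluble is read as aggregation propensity. It is given as log2, with higher values meaning more stayed soluble.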
Consider “HMGTVRFYNKERGFGFVVSDDGESVFLPAKALPDGVSDLSPGTRVDYGAALGKKGSQ”, for which the “soluble fraction (log2)” value was -0.203.

For the sequence “HMGVAAPMPGTITDVRVKVGDRVQPRTVVMMLEAMKMENEIFAGRAGVVSQVAVEKGASVNTGDLLISIDP”, the “soluble fraction (log2)” value was determined as 0.325.

As to “HMGVAASEVHREKKESSLQWRQSYNVATDQRRQGKTYKEITEFLNGAELKNSKGGTWSISGVRKMLM”, the “soluble fraction (log2)” value was at least 0.43.

For the sequence “HMGVARGQAQVTTRQHVVQPGETLYQISKQYGVTVAEILRYNADIEDNTVKVGQTLQIPTPLP”, the “soluble fraction (log2)” value is -0.206.

Turning to “HMGVDMAPESIVGKKGVAATELRPAGKVEIHGQVYDAVSVGMFIKRGTGVKVVRYEAAQIYVEPE”, the “soluble fraction (log2)” value was -0.112.

Turning to “HMGVEALTPRQREVLALMAQGRSNGWIAAELGLSEKAIVQHTSNIYDMLGLAVDADDHRRVLAVIHYLT”, the “soluble fraction (log2)” value is -0.943.

As for “HMGVENDGYVLPRELKKGDTVLIADLGKEATVLSPVDRNGNVEVLAGAAKTRVKLKNLRLIE”, the “soluble fraction (log2)” value amounted to 0.179.

As for “HMGVEVPRGDGSTVVRVRAGSSLADFAERIGADPAALITVLFRMGEMATVNQSLDEDTFKLLGAELGYDVQ”, the “soluble fraction (log2)” value was -0.721.

“HMGVGIAEAMKHVADEDYGDLSSEFQRIFSAVDGGSTLGDAVRAQMRATSSAGLRRTLSVLAMSVE”: the “soluble fraction (log2)” value was -0.314.

As for “HMGVGTTDERLAVLNQIASRQTEALEKLGPNNPLVGLGQIRNTLSKMLEISGYPDSNQFFKQVPLDYEPPP”, the “soluble fraction (log2)” value was -0.0341.

With “HMGVIDTLSGPQKAAAILVAIGRPSASRLLKHFNAEDLRKLAGHARTLEPISPLDFEHLVKQFEDSFAEG”, the “soluble fraction (log2)” value is -0.745.

For the sequence “HMGVIGADIRALRVSRGWTLSDLAEALDRSVGWLSQVERDVSEPALADIRRIAGIFDLPVSFFFSD”, the “soluble fraction (log2)” value is -1.64.

Regarding “HMGVLDFSAQLLKHLEMNGGQTPLGDKSPAEEIYAVFGVSKKVFKKAVGDLYRKRLIEISSNGIRMTS”, the “soluble fraction (log2)” value was 0.336.

Turning to “HMGVLGVDALAAAAEVSVDTVRYYQHLGLLEPPRREGRRAVYGPSHLARMGEIRRLAAAGFTLDQIRQLAE”, the “soluble fraction (log2)” value is -1.62.

On to “HMGVPTEQQSLIGKSGIAATDLRPSGKVEIDGKRYDAVSNYAGFIAKGTPISVVRYETGQIYVE”, for which the “soluble fraction (log2)” value worked out at 0.0721.

In the case of “HMGYDDVIVINGKNETYGFPTKVEDDPVLSLVIKGDRSIDYAEERRLFYVAMTRTKNRVFFVAP”, the “soluble fraction (log2)” value is -0.803.

For the sequence “HMGYGEQEAEATKYMSLHAIMSADETLSKMYTPENQHKLMTHVMEQNGIKNVKDYLTPPSELP”, the “soluble fraction (log2)” value was -0.443.

Consider “HMGYPYDTVTTAKVNLRAKRSTSSDILKKIPEGATVTVKGVTGTFASVDYNGTSGYVKVDYLV”, for which the “soluble fraction (log2)” value was -0.196.

“HMGYSSKISELLTKYNMNASELAQKVGVPPTTIYSIIKRDSKKADIEVLIKIAKLFNVPVEYF”: the “soluble fraction (log2)” value was found to be 0.186.

With “HMGYTPGVVIQKSAILEEINQPDLALGMMLEAVKKDSQNLDILNRLVTLLIDQKKNEDAEIYNKKIIT”, the “soluble fraction (log2)” value came out at 0.187.

For the sequence “HMHAGMKSWTIQYEKSPIYGSFLMYKDGNIYIQKEDNVVVHFPLDRFSQNDQAILKSRIEKIDQINKSS”, the “soluble fraction (log2)” value was -0.0137.

With “HMHAPKIIVLTINPDKIRDVIGPGGKMIKSIVAATGVKMDVEDDGKIHISSSDQKAADEAIRMINEITAEA”, the “soluble fraction (log2)” value came out at 0.223.

Consider “HMHAPLEVGSVVRIEGQKALGTILSISDREAIVALGALKTTIPLKRLHGVSPAEAQRHLRKTTPAQAVR”, for which the “soluble fraction (log2)” value was determined as 0.0546.

Regarding “HMHAQDTLMTRAGETRTVKILEIGLEEIKYRIWGLDDSPVIVIDKIDVKQIVFSNGEKMTIVQ”, the “soluble fraction (log2)” value was -1.86.

As to “HMHDLTERQREILQTLASGKMALREILSILSQPPSLRTLRDELYHLKRIGLVDTMGYGRGATWFLTQ”, the “soluble fraction (log2)” value is -0.13.

Regarding “HMHDNPLSAQEQRVLDLIAAGKTSKEIASQLFLSDGTVRNYTTSIFNKLNANNRVEAINIAQENGW”, the “soluble fraction (log2)” value turned out to be 0.123.

For the sequence “HMHDPRLPLPGTLLAREFQGRDIVVKVLDNGFEFDGRRYKSLSAIAQEVTGSKWNGFLFFGI”, the “soluble fraction (log2)” value was -0.0393.

Consider “HMHDWDITTAAKPEKIFELFSDIPVLETGLKHGTVTLLIDHEPYEVTTFRVDGNYTDGRHPDSVAFT”, for which the “soluble fraction (log2)” value was -0.366.

As to “HMHGESIPIPNILHKRYADAEQIVNNLRLEIEVTDTGYVRSLPPGAILEQTPGPGERVKSGHIIYVTINAA”, the “soluble fraction (log2)” value is -0.0135.

Regarding “HMHGETLAAKRREEIKVRIQNIYDQSEQIFGYRKITATLRSQGVVVSEKLVSQLMRELEISSVS”, the “soluble fraction (log2)” value is -0.896.

With “HMHGSSVEIPNIYGLPASEAVQLLDKADLRYEVIDSVYTTEVPKGAVYDLSPKAGSRVKAGRIIFLTLNA”, the “soluble fraction (log2)” value was -0.075.

Turning to “HMHGSTAVVPQIKNMPYSEASVRLGANGLAIEINDSVYDRDMPPGTVIESWPKAGAVVKQGRQVYVTVTA”, the “soluble fraction (log2)” value is 0.218.

For “HMHHGALKQALLDETARILAEEGESALSLRRLASNLGVSRTAPYNHFDNKDALLSAVAEEGFRR”, the “soluble fraction (log2)” value is -0.0708.

As to “HMHIELNDTQKRILNFLSDDPNLSAVRLAEQLGISSRNVEKNIKKLKEYGILIRHGSPKNGYWEIVV”, the “soluble fraction (log2)” value was -0.2.

For the sequence “HMHITSFTIKQADQIVGTTPVREQAVGAAKARAQQTGTPVSVIAYLDTGEEREVIIHPDGTN”, the “soluble fraction (log2)” value is -0.328.

For the sequence “HMHKLTSRQEEILQFIKDYLSEIGYPPTRSEIAQKMGFRSTNAAEEHLRALARKGAIEILPGPSRGLRLP”, the “soluble fraction (log2)” value was -0.393.

In the case of “HMHKTEIKIPSREDILAVLRQAQAPLTREQVFEHLKLTEDQIPIIEKRLNAMERDGQLMPNRKGMLLLSTK”, the “soluble fraction (log2)” value amounted to 0.00265.

As for “HMHKYEYESLNHVNVGSNLKYISTHFGQPKLIKKSKYHENLNFAYYLEKKFILTLILEGDRVNAYTITG”, the “soluble fraction (log2)” value is -0.236.

As for “HMHLEKGEVVVPDLKGLTMRQVGELLGKLNLRYSFSGTGLAVKQFPESGQIVNQGDIIEVIF”, the “soluble fraction (log2)” value amounted to 0.174.

Consider “HMHLLPAREQVAAYLRKAILRQEIREGTILNLADTARQMGVSVTPVREALQLLAAQGLVRLRPNKGAVVMG”, for which the “soluble fraction (log2)” value was determined as 0.158.

For “HMHLNVYRDEDEAMLAFKDHLIGTHQPIRVRVEKALPDGTMGHKIVDTTIGRIVFNHNIPQD”, the “soluble fraction (log2)” value is 0.0727.

As for “HMHLTEAPLIKITYFEADQKKSGGQYITIINHLKKINEYENLLVLENGVKINIDDIYELESV”, the “soluble fraction (log2)” value is -0.804.

Consider “HMHMNFGEILQTKRKEKGFTQEELAHQLLVSSKTISNWETNKTTPDIDNVIRISQLFDISLNQLLLE”, for which the “soluble fraction (log2)” value is -0.424.

As for “HMHMSKKLADSIISLRRKHGFSQEQLAEKIGVTRQAISNWERGTATPDVETLNLIAKLFDMDLLAIINGE”, the “soluble fraction (log2)” value was -0.514.

As to “HMHNLYAPTQKEVDHARRVVEAAEAAAREGLGVVSLNGKMVDGPVIDRARLVLSRAELSGIRE”, the “soluble fraction (log2)” value is 0.274.

Take “HMHNNTITLNKKTYVYTASGKKMSKYLGYTYINKGTTLNYYGTKNIKGKTFYYIGDHAYVNAANVGKVTN”: the “soluble fraction (log2)” value is at least 0.43.

Turning to “HMHNQIGDKIRELRTRSNLTQADLGKLVGVSMQAVSKWERGGTPDIDVLLSVAKYFNISLDEMVGRT”, the “soluble fraction (log2)” value is -1.63.

“HMHPEITLHPVRANIYSISVKNATSMEIYSVSGQLVGIRELKEGTNTLDLTGYINGVYIVNLQNKAFKLVK”: the “soluble fraction (log2)” value is -0.465.

Turning to “HMHPELSDSQRTLIALMASGLKDEAIAVEMGVGARTVRRKVQELYELLGVRTRFQAGVAANQRGW”, the “soluble fraction (log2)” value was -0.606.

For the sequence “HMHPKDVPTRRELEVLQAVSEGLSTAEIGLRLDITENTVETFRRRLIQKFDAKNAIDLVVKAMAQGWIKV”, the “soluble fraction (log2)” value was -0.255.

In the case of “HMHQGTIEVGSIVHIEGQKALGTILSLTQREAIVGLGALKTTIPLKRLHLATEAEARRHKKSVTPQEAV”, the “soluble fraction (log2)” value came to 0.284.

In the case of “HMHQIFAETVFEDIAFGPRNKGFNEEEVAKQVREAMAFVGLDYDTYAQRSPFQLSGGQMRRVAIAGVVA”, the “soluble fraction (log2)” value is -0.874.

On to “HMHQKYIITGTRDTYVVSQGETLRTIAEHVYGSRGYARYIIEHNHITHPDDIPVGLTIRLPELELNPDYR”, for which the “soluble fraction (log2)” value was -0.209.

In the case of “HMHRAKRTKAQTQSSLESIEGIGPKTRKQLLVHFGGLAEVKAASVSELQKVKGISLDKAQKIYDFFHGS”, the “soluble fraction (log2)” value was found to be 0.119.

Turning to “HMHRNLSFEEEKEFLSAYTKQAEAGQIVDLNEMKAAYIEKVGHSIGGSQIYRMLERHGWRKVM”, the “soluble fraction (log2)” value was -0.468.

With “HMHSDSEIEKGYTDDGQKLSNVNGVYMTKSEMYNKGIVEKDPNTGEEVMGRNRVNPVTGELE”, the “soluble fraction (log2)” value is 0.204.

In the case of “HMHSDWITWWYLKDKRFDDDYSLWDRQPVHPEYFEVVKEFKAPPESNPGGLDEVKRILRTYIPDAFAP”, the “soluble fraction (log2)” value stood at 0.162.

As for “HMHSESAAHQRTSVELFARIPETGNLQSAQRHFDVINQFGRFPHRNKILQRPSSEQEEAFLRQPGSG”, the “soluble fraction (log2)” value was -0.0644.

“HMHSILDDIPTVGPARRKALMRRYESLEAIRQATVDELKELPEINEASAEAIVSFFAGQAKEG”: the “soluble fraction (log2)” value is -1.13.

For the sequence “HMHSRTWTSADGVKTFEGELQSYDAASGKVSVILPNHKRITFKQEKLSADDIAWLEKNGNRP”, the “soluble fraction (log2)” value came to 0.218.

With “HMHTGLTNYEYKQIKSSLLKILTQSESMRLGELVDKVDQFESEKVTTVIRFLVGNEELMLFDDTLTLKKQL”, the “soluble fraction (log2)” value is -0.232.

“HMHTTIIVASRDIAAGSVLTSHDLSSVAWVGGAVPKGSYTAADLAVGKTAFTAFQQGEPILESRLAS”: the “soluble fraction (log2)” value was 0.317.

Turning to “HMHVVVIDKQGALSYQGKAITLLDLKNIVIDVPKETPFLIKADKDIHLQSFVEVLDLIKTAGFKKVSLQ”, the “soluble fraction (log2)” value was -0.459.

Take “HMIAANMTISQRIAAALAEYGVMSVKDIAQEVLGATDKKDTEKIRVTLTRDHGKRFRTYSDGTWSLKDWRP”: the “soluble fraction (log2)” value is 0.234.

As to “HMIAAVIAQVANTNERIILEKRYLSFKSWDEIAVEMRISPRWAYTLHERALKAVDQVLSKQNNE”, the “soluble fraction (log2)” value is -2.54.

On to “HMIADDLKSLEGVDQDMLRDLAEAGINTRDDLAELAIDELIEITGVSTEEAEKVIMAARAHWFEEES”, for which the “soluble fraction (log2)” value was -1.74.

In the case of “HMIAKEDDGTAFLIDGKISSEEEFKTISKDDILEVFVYKETEIAQKKLDSINSINNTYYTSLIEILLKE”, the “soluble fraction (log2)” value is -0.854.

On to “HMIAKIEGQISYVGNRFLIVDVSGVGYKLFVTNEAISLSKVEESIKLWVHTAVRENSIDLYG”, for which the “soluble fraction (log2)” value was determined as 0.22.

Take “HMIANDDEIRKVVLEVIEEQPKAVEDVKNGRDRILDFLVGQVMKKTRGKANPSLASNLMKEEIEK”: the “soluble fraction (log2)” value is -0.11.
